Experimental data published in the nanobody polyreactivity screen of Harvey et al. (2022).

Test: yeast display, Sf9 membrane polyspecificity reagent, FACS + sequencing; frameworks hold sequencing errors
In short: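 A nanobody's polyreactivity label depends on the gate it was sorted from. Yeast display cells were stained with 10% biotinylated, detergent-solubilized Sf9 membrane reagent for 1 hour at 4 °C, enriched on streptavidin microbeads and sorted by FACS. The low and high (top ~1%) gates were set on anti-HA fluorescence for expression and streptavidin fluorescence for reagent binding.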

| Sequence | polyreactivity (PSR sort gate) |
| --- | --- |
| QVQLVESGGGLVQAGGSLRLSCAASGLTFSLNAMGWYRQAPGKERELVAAIRGSGGSTYYADSVKGRFTISRDNAKNTVYLQMNCLKPEDTAVYYCNADQLVWQRYGVLYEYDYWGQGTQVTVSS | high polyreactivity |
| QVQLVESGGGLVQAGGSLRLSCAASGLTFSLYALGWYRQAPGKERELVAAISWTGGSTYYADSVKGRFSISRDNAKNTVYLQMKSLKPEDTAVDYCNARYTLFARYGYDYWGQGTQVTVSS | low polyreactivity |
| QVQLVESGGGLVQAGGSLRLSCAASGLTFSLYAMAWYRQAPGNESELVAANSWTGGSTYYADSVKGRFTISRDNAKNTVYLHMNSLKPEDTAVYYCNARYTLFARYGYDYWGQGTQVTVSS | low polyreactivity |
| QVQLVESGGGLVQAGGSLRLSCAASGLTFSNYAMGWYRQAPGKERELVAAISASGGSTYYADSVKGRFTISRDNAKNTVYLQMNSLKPEDTAVYYCAAATTRPVYPANDDYWGQGTQVTVSS | low polyreactivity |
| QVQLVESGGGLVQAGGSLRLSCAASGLTFSRNAMGGYRQAPGKERELVAGISVSGSITFYADSVKGRFTISRDNAKNTVYLQMNSLKPEDTAVYYCAARYRYRYTPSVTGYDYWGQGTQVTVSS | high polyreactivity |
| QVQLVESGGGLVQAGGSLRLSCAASGLTFSRNAMGWYRRAAGKERELVAAITKSGARTYYADSVKGRFTISRDNAKNTVYLQMNSLKPEDTAVYYCAADALNTYYYWGQGTQVTVSS | high polyreactivity |
| QVQLVESGGGLVQAGGSLRLSCAASGLTFSSYTMGWYRQAPGKERELVAAISSGGSTYYADSVKGRFTISRDNAKNTVYLQMNSLKPEDTAVYYCAAAFRYTPLSDHGYWGQGTQVTVSS | high polyreactivity |
| QVQLVESGGGLVQAGGSLRLSCAASGLTFSVYAMGWYREAPGKERELVAGITSSVGDTYYADSVKGRFTISRDNAKNTVYLQMNSLKPEDTAVYYCNAKYRTFVSKHDYWGQGTQLTVSS | low polyreactivity |
| QVQLVESGGGLVQAGGSLRLSCAASGLTFSVYTMGWYRQAPGKERELVAAITTSGGRTYYADSVKGRFTISRDNAKNTVYLQMNSLKPEDTAVYYCAAVRTGDTTGTMGYWGQGTQVTVSS | high polyreactivity |
| QVQLVESGGGLVQAGGSLRLSCAASGLTFSYYAMGWYRQAPGKERELVAAISGRGSTYYADSVKGRFTISRDNAKNTVYLQMNSLKPEDTAVYYCNAYGRFGLYDYWGQGTQVTVSS | high polyreactivity |
| QVQLVESGGGLVQAGGSLRLSCAASGLTFSYYARGWYRQAPGKERELVAAISWSGDSTYYADSVKGRFTISRDNAKNTVYVQMHSLKPEDTAVYYCAVVSDFYTPYTGWPFLDYEYWGQGTQVTVSS | low polyreactivity |
| QVQLVESGGGLVQAGGSLRLSCAASGLTFTLNAMGWYRQAPGKERELVATISQDGGGTTYADSVKGRFTISRDNAKNTVYLQMNSLKPEDTAVYYCATTLPPSVWGEWSGTRYPYDYWGQGTQVTVSS | low polyreactivity |
| QVQLVESGGGLVQAGGSLRLSCAASGLTFTTYAMGWYRQAPGKERELVAAISRRGSRTYYADSVKGRFTISRDNAKNTVYLQMNILKPEDTEVYYCNAMTGSFKTYSFDYWGHGTQVTVSS | high polyreactivity |
| QVQLVESGGGLVQAGGSLRLSCAASGLTFTWYTMGWYRQAPGKERELVAAITSGGSTNYADSVKGSFTISRDNAKNTVYLQMNSLKPEDTAVYYCAASRTFYWWEYGYWGQGTQVTVSS | high polyreactivity |
| QVQLVESGGGLVQAGGSLRLSCAASGLTFVANAMGWYRQAPGKERELVAAIDYGGGHTYYADSVKGRFTISRDYAKNTVYLQMNSLKPEDTAVYYCAVGLPHGGRRLYGSWYRFDYWGQGTQVTVSS | low polyreactivity |
| QVQLVESGGGLVQAGGSLRLSCAASGLTFVANAMGWYRQAPGKERELVAAISRRGTRTYYADSVKGRFTISRDNAKNTVYLQMNSLKPEDTAVYYCAAEYNSEYDYWGQGTQVTVSS | high polyreactivity |

| Sequence | polyreactivity (PSR sort gate) |
| --- | --- |
| QVQLVESGGGLVQAGGSLRLSCAASGLTFVDNAMGWYRQAPGKERELVAAISYNGGSTYYADSVMGRFTISRDNAKNTVYLLMNSLKPEDTAVYYCAADISVGRYGDMDYWGQGTQVTVSS | low polyreactivity |
| QVQLVESGGGLVQAGGSLRLSCAASGLTFVDNAMGWYRQAPGKESELVAAITKRGGRTYYADSVKGRFTISRDNAKNTFYLQMNSLKPEDTAVYYCARESGNDSSRRLDYWGQGTQVTVSS | low polyreactivity |
| QVQLVESGGGLVQAGGSLRLSCAASGLTFVDYAMGWYRPAPGKERELVAGISYSGGSTYYADSVKGRFTISRDNAKNTVYLQMNSLKPEDTAVYYCAAKYRRPRYGYWGQGTQVTVSS | high polyreactivity |
| QVQLVESGGGLVQAGGSLRLSCAASGLTFVKNAMGWYRQAPGKDRELVATISSGGSTNYADSVKGRFTISRDNAKNTVYLQMNSLKPEDTAVYYCNKDITGVLLWIWWDRYDYWGQGTQVTVSS | high polyreactivity |
| QVQLVESGGGLVQAGGSLRLSCAASGLTFVPNAMGWYRQAPGKERELVAAISNNGGRTYYADSVKGRFTISRDNAKNTVYLQMNSLKPEDTAVYYCAKYLSPGERHSYDYWGQGTQVTVSS | high polyreactivity |
| QVQLVESGGGLVQAGGSLRLSCAASGLTFVQYAMGWYRQAPGKERELVAAISRNGGSTYYADSVKGRFTISRDNAKNTVYLQMNSLKPEDTAVYYCATRISYPWWAYDYWGQGTQVTVSS | high polyreactivity |
| QVQLVESGGGLVQAGGSLRLSCAASGLTFVRYAMGWYRQAPGKERELVAAISARGGSTYYADSVKGRFTISRDNAKNTVYLQMNSLKPEDTAVYYCNTVRVHGFPIDRIYDYWGQGTQVTVSS | high polyreactivity |
| QVQLVESGGGLVQAGGSLRLSCAASGLTFVSYAMGWSRQAPGQEREFVAAINRSGGSPYYADSVKGRFTISRDNAKTTVYLQMNSLKPEDTALYYCAARRNLAYYHSGYWGQGTQVTVSS | high polyreactivity |
| QVQLVESGGGLVQAGGSLRLSCAASGLTFVWYGMGRYRQAPGKERELVAAITRGGSTYYADSVKGRFTISRDNAKNTVYLQMNSLKPEDTAVYYCAARRWERRVRPGYYPYDYWGQGTQVTVSS | high polyreactivity |
| QVQLVESGGGLVQAGGSLRLSCAASGLTFVYNTMGWYRQAPGKERELVAAINWSGGRTYYADSVKGRFTISRDNAKNTVYLQMNSLKPEDTAVYYCAALYVPNTPTYKYDYWGQGTQVTVSS | low polyreactivity |
| QVQLVESGGGLVQAGGSLRLSCAASGLTFVYYAMGWYRQAPGKERELVAAISESGTSTYYADSVKGRFTISRDNAKNTVYLQMNSLKPEDTAVYYCAAKDSYYEMDYWGQGTQVTVSS | high polyreactivity |
| QVQLVESGGGLVQAGGSLRLSCAASGLTFVYYAMGWYRQAPGNERELVAAISRRGGSTNYADSVKGRFTISRDNAKNTVYLQMNSLKPEDTAVYYCAATSRYFQPPGYGGGRIGYGYWGQGTQVTVSS | high polyreactivity |
| QVQLVESGGGLVQAGGSLRLSCAASGLTFWDNAMGWYRQAPGKERELVAAIRGGGSTYYADSVKGRFTISRDNAKNTVYLQMNSLKPEDTAVYYCNAESYQDTLFGADNDYDYWGQGTQVTVSS | low polyreactivity |
| QVQLVESGGGLVQAGGSLRLSCAASGLTFWSYAMGWYRQAPGKERELVAAISKRGGSTYYADSVKGRFTISRDNAKNTVYLQMNSLKPEDTAVYYCAARTFRALNKYYYWGQGTQVTVSS | high polyreactivity |
| QVQLVESGGGLVQAGGSLRLSCAASGLTFWYYDMGWYRQAPGKERELVAAISGTGSTYADSVKGRFTISRDNAKNTVYLQMNSLKPEDTAVYYCAADYSGTPYAVYWQWGDYDYWGQGTQVTVSS | low polyreactivity |
